Experimental data from paper PMC9001700 (Communications Biology, 2022).

Target: SARS-CoV-2 S6P (SARS-CoV-2, Wuhan-Hu-1 (assumed), UniProt P0DTC2, stabilised, biotinylated (site not stated))
Assay: BLI
Conditions: both partners purified

Binder	binding result	Kd [nM]
B6 mAb (antibody, V domains shown, source: 293 cells, purified using protein A resin) VH: EVQLQQSGPVLVKPGASVRMSCKASGYTITDYYLNWVKQSHGKSLEWLGVLNPYSGGSLYSQTFKGKATLTVDRSSSTAYLELNSLTSEDSAVYYCARQLGRGNGLDYWGQGTSVTVSS VL: NIMMTQSPSSLAVSAGEKVTMSCKSSQSVLHSSDQKNYLAWYQQKPGQSPKLLIYWASTRESGVPDRFTGSGSGTDFTLTISSVQAEDLAVYFCHQYLSSYTFGGGTKLEIK	binds	–
CV3-25 Fab (Fab, V domains shown, also called monovalent Fab) VH: QVQLVESGAEVKKPGESLKISCKGSGYTFTRYWIGWVRQMPGKGLEWMGIIYPGDSDTRYSPSFQGHVTISADKSISTAYLQWNSLKASDTAMYYCARLPQYCSNGVCQRWFDPWGQGTLVTVSS VL: EIVLTQSPSSVSASVGDRVTITCRASQGISSWLAWYQQKPGKAPKLLIYAASSLQSGVPSRFSGSGSGTDFTLTISSLQPEDFATYYCQQGNSFPYTFGQGTNLEIK	–	~0.6
